This is an account of results in article PMC3971405, “Molecular basis for the fold organization and sarcomeric targeting of the muscle atrogin MuRF1” (Open Biology, 2014).

Data set [1] concerns the molecule itself. Nature of the data set: crystal structure; crystals grown at 20°C in 35% MPD, 0.1 M sodium acetate pH 4.5, 20% glycerol, 20 mM NaF; four chains in the asymmetric unit; 2.1 Å.
Data set [2] concerns the molecule itself. Nature of the data set: SEC-MALS; SEC-MALLS, Superdex 75 10/300 GL, 20 mM Tris pH 8.0, 50 mM NaCl; 1 ml injected at 1.5 mg/ml. On the technique in general: In gel filtration, larger molecules generally elute earlier.
Data set [3] deals with the molecule itself. Nature of the data set: SEC-MALS; SEC-MALLS, Superdex 200 10/300, 20 mM Tris pH 8.0, 100 mM NaCl; injected at 0.7 mg/ml.

B1: MuRF1^CC (coiled-coil-prone segment of human MuRF1, residues 214-271) (domain or fragment)
chain: GAMDTLYAILDEKKSELLQRITQEQEKKLSFIEALIQQYQEQLDKSTKLVETAIQSLDEPG
notes: MuRF1 (E3 ubiquitin ligase, TRIM family), human, UniProtKB Q969Q1, residues 214-271 (D214 to G271); Cloned into pETM-11 (His6-tag and TEV site N-terminal); also called CC^214-271; MuRF1 CC segment; not shown: His6, N-terminal, cleaved
A word on the stoichiometry N: it is a count of units in the complex or per binding partner. Consider B1, for which the “stoichiometry N” value is 4 in data set [1] and around 2 in data set [2].

B2: MuRF1^B2|CC|COS (B2 box, helix H1 and COS-box of MuRF1, residues 114-327, C298S) (domain or fragment)
chain: LQKGSHPMCKEHEDEKINIYCLTCEVPTCSMCKVFGIHKACEVAPLQSVFQGQKTELNNCISMLVAGNDRVQTIITQLEDSRRVTKENSHQVKEELSQKFDTLYAILDEKKSELLQRITQEQEKKLSFIEALIQQYQEQLDKSTKLVETAIQSLDEPGGATFLLTAKQLIKSIVEASKGSQLGKTEQGFENMDFFTLDLEHIADALRAIDFGTD
B2: in data set [3], the “stoichiometry N” value was found to be 2.
